Residue numbers refer to the chain shown, from its start.
B1: TT-6 (antibody, V domains shown)
VH: QVQLVESGSEVRKPGASVKVSCKASGYTFSRYGLTWVRQAPGQGLEWMGWISGYNSNTNYAPKFQGRVTMTTDTSTNTAYLELRSLRSNDTAVYYCARDYFHSGSQYFFDYWGQGSLVTVSS
VL: DIRLTQSPSSLSASVGDRVTITCRSSQTISTYLNWYQQKPGEAPKILIYAASSLHTGVPSRFSGSGSGTDFTLTITSLQPEDFAIYHCQQSYSTPYTFGQGTKVEIK
notes: also called VH-7/VL-7
B2: TT-5 (antibody, V domains shown)
VH: QVQLQESGPGLVKPSETLSLTCTVSGGSINSYYWSWIRQSPGKGLEWIGYIYYTGINKYNPSLKSRVTISMDTSKRQVSLKVTSLTPADTAVYFCARLHPTCASTRCPENYGMDVWGQGTTVAVSS
VL: B1 VL
notes: also called VH-5/VL-5
B3: TT-7 (antibody, V domains shown)
VH: QVQLQESGPGLVRPSQTLSLTCTVSGDSISDGDSFWSWIRQPPGKGPEWIGYISSSGTTYYYPSLRGRLTVSLDASKNQFSLSLTSVTAADTAVYYCARARNYGFPHFFDFWGRGTLVTVSS
VL: DIQMTQSPSTLSASVGDSVTITCRASQSITRWLAWYQQKPGKAPKLLIYKASLLESGVPSRFSGSGSGTEFTLTISSLQPDDFATYYCQQYNSYSPWTFGPGTKLEIK
notes: also called VH-8/VL-8
B4: TT-8 (antibody, V domains shown)
VH: QVQLVESGGGLVKPGGSLRLSCAASGFSFSHYSMNWIRQAPGKGLEWVASITSGSTNMVYADSLRARFSISRDNAKNSLYLQMDSLSAEDTAVYYCARKGMGHYFDFWGQGTPVTVSS
VL: QTVVTQEPSSSVSLGGTVTLTCGLTSGPVTGAYYPSWHQQTPGQAPRTLIYNTYSLSSGVSDRFSGSILGNKAALTISGAQADDESDYYCVLYMGSGIWMFGGGTKLTVL
notes: also called VH-9/VL-9
B5: TT-3 (antibody, V domains shown)
VH: QVQLVQSGAEVKKPGASVRVSCKASGYTFTRYAMHWVRQAPGQRPEWMGWINVDNGNTEYSQKFQGRLTITRDTSASTAYMELSSLTSDDTAVYYCAKDRVRVVQAATTLDFWGQGTLVTVSS
VL: EIVLTQSPGTLSLSPGERATLSCRASQTIPSKYLGWYQQKLGQAPRLLIYGASSRATGIPDRFSGSGSGTDFTLTISRLEPEDFAVYYCQQYGSLSAITFGQGTRLEIK
notes: also called VH-3/VL-3
B6: TT-9 (antibody, V domains shown)
VH: QVQLQESGPGLVKPSGTLSLTCAVSGVPVYTGHWWTWVRQAPGKGLEWIGEIHHTVTTNYNPSLRSRVTISEDRSKNQISLTLQSVTAADTAVYFCARGEDCVGGSCYSADWGQGILVTVSS
VL: EIVLTQSPSSLSASVGDRVTITCRASQNIHLFLNWYQQRPGRVPKVLIYATSTLQSGVPSRFSGSGSGTDFTLTISSVQPEDFATYYCQQSFSTPRTFGPGTKVEIK
notes: also called VH-10/VL-10
B7: TT-11 (antibody, V domains shown)
VH: QVQLVESGAEVKKPGASVRVSCKASGYTFTNYGLAWVRQAPGQGLEWMGWITVYNGHTSYAQKFHDRVTMTTDTSTRTAYLEVRNLGSDDTAVYYCARKPRFYYDTSAWFEFWGQGTLVTVSS
VL: DIVLTQSPETLSVSPGESATLSCRASQSVSTDLAWYQHKPGQAPRLLIWGASTRATGIPARFSGSGSGTEFTLTISSLQSEDFAICFCHQYNNWPTFGQGTKVEIK
notes: also called VH-13/VL-13
B8: TT-1 (antibody, V domains shown)
VH: QVQLVESGGGLVQPGRSLRLSCVGSGFSFESYAMHWVRLAPGKGLEWVAGISWDSGAKGNADSVEGRFTISRDNAKKSVYLEMRSLRPEDTAFYYCAKAPIIGPKYYFYMDVWGKGTSVTVSS
VL: EIVLTQSPGTLSLSPGERATLSCRASQRVKSSYLAWYQQKPGQAPRLLIYDASTRATGIPDRFSGSGSGTDFTLTISRLEPEDVAVYYCQQYGTSRGTFGQGTRLEIK
notes: also called VH-1/VL-1
B9: TT-10 (antibody, V domains shown)
VH: B8 VH with V5Q, L39Q, V79L, Y106H
VL: B8 VL
notes: also called VH-11/VL-11
B10: TT-4 (antibody, V domains shown)
VH: QVTLKESGPALVKPTQTLTLTCTFSGFSLLSSGMCVSWIRQPPGKALEWLARIDWDEKKYYSPSLKTRLTISKDTSKDQVVLTMTNMDPLDTAMYSCARGVVPAGIPFDFWGQGIMVTVSS
VL: ETTLTQSPSTLPASVGDRVTITCRASENINSWLAWYQQKPGKAPKILIYRASNLESGVPSRFSGSGSGTEFTLTISSLQPDDFATYYCQHFDKYFSWTFGHGTKVEIK
notes: also called VH-4/VL-4
B11: TT-2 (antibody, V domains shown)
VH: QVQLVQSGGGVKQPGGSLRLSCTASGFTFEDFNMHWVRQAPGKGLEWISYISGDGDRTHYSDSVRGRFTISRDNSGNSLYLQMTSLRTEDAGFYYCGKSYDYIRENLDSWGQGTLVTVSS
VL: QPGLTQPPSVSVAPGQTARITCGGNNIGSRHVHWYQQRPGQAPVLVVYDDDARPSGISGRFSGSNSGNTATLTISWVEAGDEADYYCQVSDSGREWGVFGSGTKVTVL
notes: also called VH-2/VL-2

Target: Tetanus toxoid (TT) (UniProt P04958 2-1315)
Assay: competitive ELISA, IgG equilibrated with soluble TT, TT-coated plate

Chain of Tetanus toxoid (TT) (P04958 2-457 limits assumed, chain 1 of 2): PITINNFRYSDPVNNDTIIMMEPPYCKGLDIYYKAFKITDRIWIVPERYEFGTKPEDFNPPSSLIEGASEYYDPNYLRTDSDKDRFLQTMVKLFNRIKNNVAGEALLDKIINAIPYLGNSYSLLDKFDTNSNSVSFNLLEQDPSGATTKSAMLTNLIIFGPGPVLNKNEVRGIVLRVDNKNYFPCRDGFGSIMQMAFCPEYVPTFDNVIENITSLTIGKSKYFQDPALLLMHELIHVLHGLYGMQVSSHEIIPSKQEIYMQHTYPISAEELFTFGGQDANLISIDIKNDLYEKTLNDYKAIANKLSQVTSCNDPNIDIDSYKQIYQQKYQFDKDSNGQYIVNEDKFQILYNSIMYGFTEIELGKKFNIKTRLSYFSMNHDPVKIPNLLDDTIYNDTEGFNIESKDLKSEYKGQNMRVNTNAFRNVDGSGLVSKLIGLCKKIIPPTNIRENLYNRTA
Chain of Tetanus toxoid (TT) (P04958 458-1315 limits assumed, chain 2 of 2): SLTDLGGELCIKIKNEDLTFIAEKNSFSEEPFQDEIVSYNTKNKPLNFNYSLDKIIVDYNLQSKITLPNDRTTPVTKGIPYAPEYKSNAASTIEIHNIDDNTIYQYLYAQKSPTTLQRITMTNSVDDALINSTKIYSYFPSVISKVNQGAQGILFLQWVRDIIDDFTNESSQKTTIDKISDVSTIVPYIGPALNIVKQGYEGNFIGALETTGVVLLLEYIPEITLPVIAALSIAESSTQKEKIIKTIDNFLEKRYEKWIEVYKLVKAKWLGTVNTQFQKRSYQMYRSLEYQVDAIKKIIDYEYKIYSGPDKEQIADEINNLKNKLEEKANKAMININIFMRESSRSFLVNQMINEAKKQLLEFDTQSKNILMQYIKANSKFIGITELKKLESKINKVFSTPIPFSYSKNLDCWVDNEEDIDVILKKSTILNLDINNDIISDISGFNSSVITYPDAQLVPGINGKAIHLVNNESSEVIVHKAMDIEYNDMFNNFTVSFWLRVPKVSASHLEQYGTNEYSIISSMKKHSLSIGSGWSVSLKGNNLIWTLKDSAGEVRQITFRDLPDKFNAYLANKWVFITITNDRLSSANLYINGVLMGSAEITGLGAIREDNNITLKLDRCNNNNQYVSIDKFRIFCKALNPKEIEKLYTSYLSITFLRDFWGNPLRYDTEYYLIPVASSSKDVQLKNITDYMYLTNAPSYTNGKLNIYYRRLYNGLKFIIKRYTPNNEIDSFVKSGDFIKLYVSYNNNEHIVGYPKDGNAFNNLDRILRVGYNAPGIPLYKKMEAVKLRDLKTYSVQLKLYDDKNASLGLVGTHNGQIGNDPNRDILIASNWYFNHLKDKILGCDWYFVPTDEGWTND

Binder | Kd [nM]
B1 | 0.6
B2 | 18.1
B3 | 0.5
B4 | 2.8
B5 | 3.7
B6 | 0.1
B7 | 1.6
B8 | 1.6
B9 | 0.9
B10 | 3.2
B11 | 22.6
